# Reference: IntAct's records for PubMed 21139566
# B1: Structural maintenance of chromosomes protein 1 (Saccharomyces cerevisiae), P32908 (parent)
# chain: MGRLVGLELSNFKSYRGVTKVGFGESNFTSIIGPNGSGKSNMMDAISFVLGVRSNHLRSNILKDLIYRGVLNDENSDDYDNEGAASSNPQSAYVKAFYQKGNKLVELMRIISRNGDTSYKIDGKTVSYKDYSIFLENENILIKAKNFLVFQGDVEQIAAQSPVELSRMFEEVSGSIQYKKEYEELKEKIEKLSKSATESIKNRRRIHGELKTYKEGINKNEEYRKQLDKKNELQKFQALWQLYHLEQQKEELTDKLSALNSEISSLKGKINNEMKSLQRSKSSFVKESAVISKQKSKLDYIFKDKEKLVSDLRLIKVPQQAAGKRISHIEKRIESLQKDLQRQKTYVERFETQLKVVTRSKEAFEEEIKQSARNYDKFKLNENDLKTYNCLHEKYLTEGGSILEEKIAVLNNDKREIQEELERFNKRADISKRRITEELSITGEKLDTQLNDLRVSLNEKNALHTERLHELKKLQSDIESANNQEYDLNFKLRETLVKIDDLSANQRETMKERKLRENIAMLKRFFPGVKGLVHDLCHPKKEKYGLAVSTILGKNFDSVIVENLTVAQECIAFLKKQRAGTASFIPLDTIETELPTLSLPDSQDYILSINAIDYEPEYEKAMQYVCGDSIICNTLNIAKDLKWKKGIRGKLVTIEGALIHKAGLMTGGISGDANNRWDKEEYQSLMSLKDKLLIQIDELSNGQRSNSIRAREVENSVSLLNSDIANLRTQVTQQKRSLDENRLEIKYHNDLIEKEIQPKITELKKKLDDLENTKDNLVKEKEALQNNIFKEFTSKIGFTIKEYENHSGELMRQQSKELQQLQKQILTVENKLQFETDRLSTTQRRYEKAQKDLENAQVEMKSLEEQEYAIEMKIGSIESKLEEHKNHLDELQKKFVTKQSELNSSEDILEDMNSNLQVLKRERDGIKEDIEKFDLERVTALKNCKISNINIPISSETTIDDLPISSTDNEAITISNSIDINYKGLPKKYKENNTDSARKELEQKIHEVEEILNELQPNARALERYDEAEGRFEVINNETEQLKAEEKKILNQFLKIKKKRKELFEKTFDYVSDHLDAIYRELTKNPNSNVELAGGNASLTIEDEDEPFNAGIKYHATPPLKRFKDMEYLSGGEKTVAALALLFAINSYQPSPFFVLDEVDAALDITNVQRIAAYIRRHRNPDLQFIVISLKNTMFEKSDALVGVYRQQQENSSKIITLDLSNYAE
# partner: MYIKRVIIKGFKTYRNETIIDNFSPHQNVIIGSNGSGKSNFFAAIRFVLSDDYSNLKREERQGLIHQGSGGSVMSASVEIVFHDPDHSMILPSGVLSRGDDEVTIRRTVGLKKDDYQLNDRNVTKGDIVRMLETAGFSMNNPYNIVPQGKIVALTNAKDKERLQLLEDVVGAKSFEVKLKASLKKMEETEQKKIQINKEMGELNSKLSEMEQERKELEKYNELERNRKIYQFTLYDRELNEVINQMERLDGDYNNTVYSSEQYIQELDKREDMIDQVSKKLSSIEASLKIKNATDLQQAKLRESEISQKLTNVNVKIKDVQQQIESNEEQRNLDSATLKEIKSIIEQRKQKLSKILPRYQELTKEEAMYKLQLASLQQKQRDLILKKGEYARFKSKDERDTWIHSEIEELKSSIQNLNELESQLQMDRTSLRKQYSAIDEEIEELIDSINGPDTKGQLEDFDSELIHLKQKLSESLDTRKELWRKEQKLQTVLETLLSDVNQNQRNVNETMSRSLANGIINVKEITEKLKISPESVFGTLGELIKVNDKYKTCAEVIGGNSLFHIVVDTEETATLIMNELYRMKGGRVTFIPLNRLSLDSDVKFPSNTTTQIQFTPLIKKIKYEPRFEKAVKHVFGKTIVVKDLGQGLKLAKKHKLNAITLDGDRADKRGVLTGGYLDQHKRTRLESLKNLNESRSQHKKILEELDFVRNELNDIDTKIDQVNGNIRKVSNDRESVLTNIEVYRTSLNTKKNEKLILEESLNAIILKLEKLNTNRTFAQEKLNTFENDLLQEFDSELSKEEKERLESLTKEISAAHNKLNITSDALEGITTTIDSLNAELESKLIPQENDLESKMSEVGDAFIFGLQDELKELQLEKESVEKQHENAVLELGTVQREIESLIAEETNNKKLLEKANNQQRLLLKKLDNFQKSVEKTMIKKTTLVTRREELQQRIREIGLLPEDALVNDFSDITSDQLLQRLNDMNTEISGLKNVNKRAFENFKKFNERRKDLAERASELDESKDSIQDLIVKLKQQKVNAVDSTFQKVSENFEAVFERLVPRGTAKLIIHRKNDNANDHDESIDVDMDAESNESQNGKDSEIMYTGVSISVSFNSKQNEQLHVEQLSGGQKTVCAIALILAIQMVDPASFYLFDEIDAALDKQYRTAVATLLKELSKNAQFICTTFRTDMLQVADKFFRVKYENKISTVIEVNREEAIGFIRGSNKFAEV
# B2: Structural maintenance of chromosomes protein 3 (Saccharomyces cerevisiae), P47037 (parent)
# chain: B1 partner
# partner: B1 chain
# Variants of: B1
# Conditions: with smc3_yeast SMC3, P47037
row,effect of a mutation on the interaction,Variant
1,disrupting interaction,M665R

# Variants of: B1
# Conditions: with smc3_yeast SMC3, P47037
# Remark: another data set of the same source
row,effect of a mutation on the interaction,Variant
1,decreasing interaction,K661D
2,decreasing interaction,K554D

# Variants of: B2
# Conditions: with smc1_yeast SMC1, P32908
row,effect of a mutation on the interaction,Variant
1,decreasing interaction,K668A
2,decreasing interaction,R665A
3,decreasing interaction,R669A
